# Measurements: the DeepSol protein solubility set
# Experiment: soluble on expression in E. coli; label from the status in PepcDB or PDB records
row,Sequence,soluble on expression in E. coli
1,MHSVARENLQAYLHSYKLSSNEPGIKLMHNSQRDDQHRKDVEHFAALRALQHSKRKHVAFAVQAMRDYDGSLDEKSPLKDHTISFNTNDFIHIHTKFNSDWWIGRIVRSHSEFGFVPTARRLANYMVSDEDPPVKHNTSDHQDRSIWEPKCPYKVVPSSRPIVLLGPTLQHSRLTQLLHLALREEILKHFGKNMKYVKSDIGSGQQSGDRKGARWLRGLRDYDRGQDENQEVELIMRMTSKLHLLLVDSPHIHTPDDVQHLPLSPIFFLIRVSDNKILAKLLRNTGTTRMAAEIEVANVLKTMNDDRVGGHDDEQLIARGFEMVIEENGLREATRRIISYLEKYIHALHYHHKDDEI,not soluble
2,MSLKGYPFLDKANAPFVDRHVTKAGEIFYPWDGKRIDGFGLIGAPLSKSSISHSGASFAPTVIRKCLHAFSTYSVEEDLDLAQLKLTDLGDITMHVTDIVGSQARIEETMTKLLENEQNWQPIVLGGDHSISFPSIKAFASAKGTIGVIQFDAHHDLRNLEDGGPCNGTPFRSLLETGSLVGEHLVQIGIRDFSNSYPYRKYAEKHGVKVYTMKDVNARGLLTILDEAVAKLKRSVDVIYVSVDMDVLDQAHAPGCPAIGPGGMDSTTLLQGIFHLGKDSLVQGMDIVEVDPTLDFREMTSRAAAHVILNYLKGKCIKSEGHHHHHH,soluble
3,MIRWMNEPLWPFIERKKSMRNLVKYVGIGLLVMGLAACDDKDTNATAQGSVAESNATGNPVNLLDGKLSFSLPADMTDQSGKLGTQANNMHVWSDATGQKAVIVIMGDDPKEDLAVLAKRLEDQQRSRDPQLQVVTNKAIELKGHKMQQLDSIISAKGQTAYSSVILGNVGNQLLTMQITLPADDQQKAQTTAENIINTLVIQ,not soluble
4,MAHHHHHHMEPDDGVASWMELREEGNKAFKSEAYANAVKLYSEAIKLNSKEAALFSNRSAAYIKMKEYQKAVLDAEAAIANDKTFVKGYSRLHNALCHLGRFREATQKLKEALVVLEACGASPEDKKQIQELHRTAEEGQRGFEAGQRLLEERNFLAAERELVKAAQLFPDCAIVGIMLGESQASLYPERVIRSLTALSSAHADDTYYLYVRALASYYSGQSGLNNAQSILRHTIELDPDNRKATELLKKIRAVESQKTEGNAAFKEKRFTAAVNCYKAAIEVDPSNIRMTAVLRGNQAAAKMELKEYSSALLDCDFAIKNGAESAKLYARRSRIHEALENYDDALRDIQRAAEMDPSYNGEAQQMKISAKRAKRKDYYKILGLPQGESDDSSIKRAYKKGCLQWHPDKWAHATEEEKAHAEKMFKEVGEAFSILSDPQKKRLYDSGQLDDASSPGGTSDFPARQADIFQMMNMMFQGGCGEGGMPSGFSFTVDPRSRRQKQTFHYR,soluble
5,MGRDRISELPDGLLNHILMYLHIEESIRTSVLSSRWRKLWLKVPGLDVNVHDFPADGNLFESLMDKFLEVNRGRLQNFKLNYESNLYYLMDRFVPWIATVVDRGIQHLDVTATDCPPWTIDFMPANICKSKTLVSLKLVNVGLDTPKFVVSLPCLKIMHLEDIFYSPLIAENLISGCPVLEDLTIVRNHEDFLNFLRVMSQTLKNFRLTFDWGMGSNDFSVEIDAPGLKYMSFRDSQSDRIVVKNLSSLVKIDLDTEFNLKFGLGSPLEPEDLTKRDIIRDFLTGISSVKHMIISHPTLEVLYRYSKIGQLPKFHNLYHLQAVFSSSLLQLLPAFLEICPNLKNLILDYSISAEPEQIDFTNLPRCLISTLEYVEIKQLTMREESGIKLVKYFLENSAVLKKLTLSFIDSPMTNQESEIYMQLLTSTKRSRGCHVLIL,soluble
6,MASKEAHVSLARGEQSVKRIKEFDPGKDSFSVLLLGIDAREKNGETVDQARSDANVLVTFNRKEKTAKMLSIPRDAYVNIPGHGYDKFTHAHAYGGVDLTVKTVEEMLDIPVDYVVESNFTAFEDVVNELNGVKVTVKSDKVIQQIKKDTKGKVVLQKGTHTLDGEEALAYVRTRKADSDLLRGQRQMEVLSAIIDKSKSLSSIPAYDDIVDTMGQNLKMNLSLKDAIGLFPFITSLKSVESIQLTGYDYEPAGVYYFKLNQQKLQEVKKELQNDLGVLEHHHHHH,soluble
7,MNMNKETHICALCERKVPKITEHHLIPREKGGRFDETTWLCVPCHKQVHALYSNYELAVRLNSLPRLKDDEKIKRYLKFIKKQPGDANVTIKKSKAIRKKGRYLEHHHHHH,not soluble
8,IQKMANSFQKLASSVVLFETEINEFLVLFTDTKNKREESEPVRQVSTTQEYHQVTLDQQHYFNHKLSDYFRLFKDKTFFFEII,not soluble
9,GGSGSDIEAYFERIGYKNSRNKLDLETLTDILEHQIRAVPFENLNMHCGQAMELGLEAIFDHIVRRNRGGWCLQVNQLLYWALTTIGFQTTMLGGYFYIPPVNKYSTGMVHLLLQVTIDGRNYIVDAGSGSSSQMWQPLELISGKDQPQVPCIFCLTEERGIWYLDQIRREQYITNKEFLNSHLLPKKKHQKIYLFTLEPRTIEDFESMNTYLQTSPTSSFITTSFCSLQTPEGVYCLVGFILTYRKFNYKDNTDLVEFKTLTEEEVEEVLKNIFKISLGRNLVPKPGDGSLTI,soluble
10,MCGGRGTRLDTKVEKPLFRIGGVPMVGRVVGALEDSAVERIIAATSPNAPETQSCLDVPCIETPGEGYVADLNAALNDDRLSQPVLTVAADLPLLDGEIVDRVLDEHNGGSLTVLVPASLKRALGVSDDTTFDNGGREVAPTGVNVVSDGPDDAWLTRDRRVAVNVNTLADARVAEQWLLEHHHHHH,not soluble
11,MPKATFYTHVAQVPIFTCRLIARAIRDGGRILVWSDSFGQLQELDKMLWQYEAESFIPHEIWETEEAMPSEPSVLLACGGNLPRIPEGMTVLNLSDGFWNTAPVLPARVLEIVGNSLEELADARERFTAYRRSGFAIEHHGMEGKA,not soluble
12,MNYTETVAYIHSFPRLAKTGDHRRILTLLHALGNPQQQGRYIHVTGTNGKSTAANAIAHVLEASGLTVGLYTSPFIMRFNERIMIDHEPIPDAALVNAVAFVRAALERLQQQQADFNVTEFEFITALGYWYFRQRQVDVAVIEVGIGGDTDSTNVITPVVSVLTSVALDHQKLLGHTITAIAKHKAGIIKRGIPVVTGNLVPDAAAVVAAKVATTGSQWLRFDRDFSVPKAKLHGWGQRFTYEDQDGRISDLEVPLVGDYQQRNMAIAIQTAKVYAKQTEWPLTPQNIRQGLAASHWPARLEKISDTPLIVIDGAHNPDGINGLITALKQLFSQPITVIAGILADKDYAAMADRLTAAFSTVYLVPVPGTPRALPEAGYEALHEGRLKDSWQEALAASLNDVPDQPIVITGSLYLASAVRQTLLGGKS,soluble
13,MVFPSEQEQIEKFEKDHVAQHYFEVLRTLISKKSVFAQQVGLKEVANYLGEIFKRVGAEVEIDESYTAPFVMAHFKSSRPDAKTLIFYNHYDTVPADGDQVWTEDPFTLSVRNGFMYGRGVDDDKGHITARLSALRKYMQHHDDLPVNISFIMEGAEESASTDLDKYLEKHADKLRGADLLVWEQGTKNALEQLEISGGNKGIVTFDAKVKSADVDIHSSYGGVVESAPWYLLQALQSLRAADGRILVEGLYEEVQEPNEREMALLETYGQRNPEEVSRIYGLELPLLQEERMAFLKRFFFDPALNIEGIQSGYQGQGVKTILPAEASAKLEVRLVPGLEPHDVLEKIRKQLDKNGFDKVELYYTLGEMSYRSDMSAPAILNVIELAKKFYPQGVSVLPTTAGTGPMHTVFDALEVPMVAFGLGNANSRDHGGDENVRIADYYTHIELVEELIRSYE,soluble
14,MVNSDIREQLRPFFEPKAVAIIGATNKKGKVGNVIFENFKKNKEKGIFKGNIYPVNPKLDEIEGYKVYHDVSELPDDTDLAVIAIPAPAVPETMRKIGEKGIKSVIIITGGFGELGEEGKRMEQEILEIARANGIRVIGPNCVGVYVPDTGVDTVFLPDEKMDRPPSGPIAFISQSGAFAAAMLDWAAMAGIGIGKMVSYGNKIDVDDADLMEYFAHDDEIKVMTFYIEGVKDGRKFMETAKRVTKIKPIIALKSGRTEYGAKAASSHTGSLAGQDVIYDAVFKQTGIIRAEDFEHMFDLAKAFAKCKLPKGDRIGIITDGGGAGVMASDAVAKFGLKLAELSEETIKFLRERFPPHAVVGNPTDVVGDTDAERYRLALEAFTKDPNVDAILLIVLFQVPLLDEEEVINIITDYAKKSDKPIVVVSMGGYKTDKYARMLEERGIPVYPTPERGVRALAGLVRYAKYIRGNGE,soluble
15,MSLDIRGIGYLGFESPNIEAWRSYGPEVLGLAIAPSPEDEPDALYLKMDDRRYRLAFQPGPIDKLAYIGWECVNRIAFEKAVKKLQDAGIAVEMGSDDLKARRAVRDVVRFKDPVGYQYELFYGQKGEPDSFVPGRRHGGFNTYGRGFGHVVVMTPEYGPELDDFLINIMGFQWYGSGAGKGKTGFYRAGLNNLTSHDIGYGHAPGRMGIQHIGLLTGDLRDVGETWDIVNKRQIQVQMTLGQHTQDPHFSFYHFSPSGFAVEVIAETHPWPGDPFELNAERLSYWGHQLVGPILGTEGHHHHHH,not soluble
16,MFDAVKKIVLSYRVSPNRDTLSAIKAIDDVLRKLASLPDDLSFVVDGNPIYRLAQHFFAQHGISFDVRQVIGLTNEDPVSEEFRPLKQIIERFNRTFKGNYRPTHGFGAEEGSVSFVTLFVAYFNFLRPHSALEGRVPVVIPELADLPHMPARWTKLIAMAQAFLQQEAA,not soluble
17,MIARLAIAALLVSSSLACLPGLGGLGGGCGGAAASPCAAPPMPPPVSCGGGCGAAPYPAGPMAAPYFAPAAIAPPPPPQGAVIGVGAQPAVYSAPLPAGNAYVGQGK,not soluble
18,GSGTGAGEGHEGYVTRKHEWDSTTKKASNRSWDKVYMAAKAGRISFYKDQKGYKSNPELTFRGEPSYDLQNAAIEIASDYTKKKHVLRVKLANGALFLLQAHDDTEMSQWVTSLKAQSDSTA,soluble
19,MGENVLICLCGSVNSINISHYIIELKSKFDEVNVIASTNGRKFINGEILKQFCDNYYDEFEDPFLNHVDIANKHDKIIILPATSNTINKIANGICDNLLLTICHTAFEKLSIFPNMNLRMWENPVTQNNIRLLKDYGVSIYPANISESYELASKTFKKNVVAPEPYKVLEFI,not soluble
20,MAILQIGAGGVGWVVAHKAAQNNDVLGDITIASRTVGKCEKIIESIQKKNNLKDSTKKLEARAVNADDVDSLVALIEEVKPDLVINAGPPWVNMPIMEACYRAKVSYLDTSVAVDLCSEGQQVPEAYDWQWGYREKFEE,not soluble
21,MEKKKVVLAYSGGLDTSVAIKWLQEKNYDIIALCLDLGEGKDLAFVKEKALSVGAIKSYMIDVQEEFANEYALMAMQAHTLYEGKYPLVSALSRPLIAKKLVEIAEQEGATAVAHGCTGKGNDQVRFEVSIQALNPYLEVIAPVREWKWSREEEIAYAKENNVPIPINLDSPFSIDQNLWGRSNECGILEDPWAAPPEDAYEMTLALEDTPNKPEFVEIGFEAGVPTTLNGTAYPLSELIKTLNALAGKHGVGRIDHVENRLVGIKSREVYECPAAMTLITAHKELEDLTLVKEVAHFKPMIEQKITELIYNGLWFSPLKQALHAFLQETQKNVTGTVRVKLFKGHAIVEGRKSEYSLYDEKLATYTAQDEFNHDAAVGFISLFGLPTKVYSQVNQKKVEA,not soluble
22,MGSDKIHHHHHHMDVANKIKVIDRLRLGFAVLVAKSVTFLVRSLRLGAASVLPGSIARRIEPRLLQLLSQQVQNGVIIIAGTNGKTTTALLLCTILENKGYRVCHNSTGANLENGLMTALLDSTNLVGTLDVDYAILEVDENIVPRVLKPLQPRIILCLNLFRDQLDRYGEVDTISKRWTKVISTLPRETVVIPNADDPTLSLLGQQLPQKVLFFGLNEPEHYLEAIPHAVDSIYCPQCGHSLDYQGVYLSHLGDFTCPSCGFTKSQPTLASREWSQILVGLYNKYNTLAATTAAIELGVDETTIRDTINNFQAAFGRAEDLVIDGKRVRILLSKNPVGTNETIRVVTQSTDKTTLLVLNDRTPDGTDVSWIWDVDTEKLVERGGTLVVSGDRVYDMALRLRYSEKSAQSNLNLIVEADLRQAIATALEHTPATETLHILPTYSAMLEVREVLTGRKIL,not soluble
